Measured values from the supplement of paper PMC5998384.

Legend:
HeLa Kyoto [1] = assay: melting temperature (median over replicates), in situ; higher = more thermally stable
HeLa Kyoto [2] = assay: solubility in G1/S (NP-40 vs SDS abundance) (log2 ratio); higher = more soluble; conditions: cell cycle stage: G1/S
HeLa Kyoto [3] = assay: solubility change mitosis vs G1/S (difference of NP-40 vs SDS log2 ratios) (log2 ratio difference); higher = more soluble in mitosis
HeLa Kyoto [4] = assay: thermal stability score vs G1/S (z-score of summed log2 fold changes over temperatures); higher = more thermally stable than in G1/S
[5] = cell cycle stage: early G1 (4.5 h after nocodazole release)
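Throughout, for melting temperature (median over replicates), in situ: HeLa Kyoto cells synchronized by double thymidine or nocodazole block, proteins quantified by TMT10plex mass spectrometry, three independent biological replicates.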
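Throughout, for solubility change mitosis vs G1/S (difference of NP-40 vs SDS log2 ratios): synchronized HeLa Kyoto cells (double thymidine block for G1/S, nocodazole release for mitosis), protein amounts in NP-40 versus SDS lysates quantified by mass spectrometry, three biological replicates.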
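Throughout, for solubility in G1/S (NP-40 vs SDS abundance): HeLa Kyoto cells arrested at G1/S by double thymidine block, proteins quantified by TMT10plex mass spectrometry in mild NP-40 versus SDS extracts, three biological replicates.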
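Throughout, for thermal stability score vs G1/S (z-score of summed log2 fold changes over temperatures): synchronized HeLa Kyoto cells, proteins quantified by TMT10plex mass spectrometry, three biological replicates, mitosis taken 0.5 h after nocodazole release, G1/S directly after double thymidine block.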

Row | Sequence | melting temperature (HeLa Kyoto [1]; cell cycle stage: G1/S) | melting temperature (HeLa Kyoto [1]; cell cycle stage: mitosis) | solubility in G1/S (log2) (HeLa Kyoto [2]) | solubility change mitosis (log2) (HeLa Kyoto [3]) | thermal stability score (HeLa Kyoto [4]; [5]) | thermal stability score (HeLa Kyoto [4]; cell cycle stage: mitosis)
1 | MEKFGMNFGGGPSKKDLLETIETQKKQLLQYQARLKDVVRAYKSLLKEKEALEASIKVLSVSHEADVGLAGVQLPGLTFPDSVDDRCSTHSEDSTGTATSLDTAASLTSTKGEFGVEDDRPARGPPPPKSEEASWSESGVSSSSGDGPFAGGEVDKRLHQLKTQLATLTSSLATVTQEKSRMEASYLADKKKMKQDLEDASNKAEEERARLEGELKGLQEQIAETKARLITQQHDRAQEQSDHALMLRELQKLLQEERTQRQDLELRLEETREALAGRAYAAEQMEGFELQTKQLTREVEELKSELQAIRDEKNQPDPRLQELQEEAARLKSHFQAQLQQEMRKTALAEDQLRQQSQVEEQRVAALENQISEVSELLGTYEKAKQKDQLAIQKLKERILQLDLENKTLALAASSRSPLDSHGEESSLDVNVLKDKMEKLKRLLQVAARKSQVTLDVEKLCDLEIMPSSEAADGEKATALYYQQELKQLKEEFERYKMRAQVVLKSKNTKDGNLGKELEAAQEQLAELKEKYISLRLSCEELEHQHQQEADDWKQELARLQQLHRQELERCQLDFRDRTLKLEEELHKQRDRALAVLTEKDLELEQLRSVALASGLPGRRSPVGGGGPGDPADTSSSDSLTQALQLAAANEPTFFLYAEQLARKEVEITSLRKQKHRLEVEVHQLQDRLLEEGERHREEVAALQSHIEKNIRDQSREGANLEYLKNIIYRFLTLPDSLGRQQTLTAILTILHFSPEEKQVIMRLPTSASWWPSGKR [GCC1] | 48.7 °C | 51.5 °C | 0.527 | -0.114 | -0.43 | 0.117
2 | MAAAEPAVLALPNSGAGGAGAPSGTVPVLFCFSVFARPSSVPHGAGYELLIQKFLSLYGDQIDMHRKFVVQLFAEEWGQYVDLPKGFAVSERCKVRLVPLQIQLTTLGNLTPSSTVFFCCDMQERFRPAIKYFGDIISVGQRLLQGARILGIPVIVTEQYPKGLGSTVQEIDLTGVKLVLPKTKFSMVLPEVEAALAEIPGVRSVVLFGVETHVCIQQTALELVGRGVEVHIVADATSSRSMMDRMFALERLARTGIIVTTSEAVLLQLVADKDHPKFKEIQNLIKASAPESGLLSKV [ISOC1] | 55.3 °C | 55.4 °C | 0.237 | -0.11 | -1.52 | -0.91
3 | MGLLLMILASAVLGSFLTLLAQFFLLYRRQPEPPADEAARAGEGFRYIKPVPGLLLREYLYGGGRDEEPSGAAPEGGATPTAAPETPAPPTRETCYFLNATILFLFRELRDTALTRRWVTKKIKVEFEELLQTKTAGRLLEGLSLRDVFLGETVPFIKTIRLVRPVVPSATGEPDGPEGEALPAACPEELAFEAEVEYNGGFHLAIDVDLVFGKSAYLFVKLSRVVGRLRLVFTRVPFTHWFFSFVEDPLIDFEVRSQFEGRPMPQLTSIIVNQLKKIIKRKHTLPNYKIRFKPFFPYQTLQGFEEDEEHIHIQQWALTEGRLKVTLLECSRLLIFGSYDREANVHCTLELSSSVWEEKQRSSIKTVELIKGNLQSVGLTLRLVQSTDGYAGHVIIETVAPNSPAAIADLQRGDRLIAIGGVKITSTLQVLKLIKQAGDRVLVYYERPVGQSNQGAVLQDNFGQLEENFLSSSCQSGYEEEAAGLTVDTESRELDSEFEDLASDVRAQNEFKDEAQSLSHSPKRVPTTLSIKPLGAISPVLNRKLAVGSHPLPPKIQSKDGNKPPPLKTSEITDPAQVSKPTQGSAFKPPVPPRPQAKVPLPSADAPNQAEPDVLVEKPEKVVPPPLVDKSAEKQAKNVDAIDDAAAPKQFLAKQEVAKDVTSETSCPTKDSSDDRQTWESSEILYRNKLGKWTRTRASCLFDIEACHRYLNIALWCRDPFKLGGLICLGHVSLKLEDVALGCLATSNTEYLSKLRLEAPSPKAIVTRTALRNLSMQKGFNDKFCYGDITIHFKYLKEGESDHHVVTNVEKEKEPHLVEEVSVLPKEEQFVGQMGLTENKHSFQDTQFQNPTWCDYCKKKVWTKAASQCMFCAYVCHKKCQEKCLAETSVCGATDRRIDRTLKNLRLEGQETLLGLPPRVDAEASKSVNKTTGLTRHIINTSSRLLNLRQVSKTRLSEPGTDLVEPSPKHTPNTSDNEGSDTEVCGPNSPSKRGNSTGIKLVRKEGGLDDSVFIAVKEIGRDLYRGLPTEERIQKLEFMLDKLQNEIDQELEHNNSLVREEKETTDTRKKSLLSAALAKSGERLQALTLLMIHYRAGIEDIETLESLSLDQHSKKISKYTDDTEEDLDNEISQLIDSQPFSSISDDLFGPSESV [PDZD8] | 51.8 °C | 52.2 °C | -0.312 | -0.0986 | -1.18 | -0.643
4 | MSWFVDLAGKAEDLLNRVDQGAATALSRKDNASNIYSKNTDYTELHQQNTDLIYQTGPKSTYISSAADNIRNQKATILAGTANVKVGSRTPVEASHPVENASVPRPSSHFVRRKKSEPDDELLFDFLNSSQKEPTGRVEIRKEKGKTPVFQSSQTSSVSSVNPSVTTIKTIEENSFGSQTHEAASNSDSSHEGQEESSKENVSSNAACPDHTPTPNDDGKSHELSNLRLENQLLRNEVQSLNQEMASLLQRSKETQEELNKARARVEKWNADHSKSDRMTRGLRAQVDDLTEAVAAKDSQLAVLKVRLQEADQLLSTRTEALEALQSEKSRIMQDQSEGNSLQNQALQTFQERLHEADATLKREQESYKQMQSEFAARLNKVEMERQNLAEAITLAERKYSDEKKRVDELQQQVKLYKLNLESSKQELIDYKQKATRILQSKEKLINSLKEGSGFEGLDSSTASSMELEELRHEKEMQREEIQKLMGQIHQLRSELQDMEAQQVNEAESAREQLQDLHDQIAGQKASKQELETELERLKQEFHYIEEDLYRTKNTLQSRIKDRDEEIQKLRNQLTNKTLSNSSQSELENRLHQLTETLIQKQTMLESLSTEKNSLVFQLERLEQQMNSASGSSSNGSSINMSGIDNGEGTRLRNVPVLFNDTETNLAGMYGKVRKAASSIDQFSIRLGIFLRRYPIARVFVIIYMALLHLWVMIVLLTYTPEMHHDQPYGK [GOLGA5] | 52.7 °C | 53 °C | 0.284 | -0.148 | 1.32 | 2.34
5 | MAATGANAEKAESHNDCPVRLLNPNIAKMKEDILYHFNLTTSRHNFPALFGDVKFVCVGGSPSRMKAFIRCVGAELGLDCPGRDYPNICAGTDRYAMYKVGPVLSVSHGMGIPSISIMLHELIKLLYYARCSNVTIIRIGTSGGIGLEPGTVVITEQAVDTCFKAEFEQIVLGKRVIRKTDLNKKLVQELLLCSAELSEFTTVVGNTMCTLDFYEGQGRLDGALCSYTEKDKQAYLEAAYAAGVRNIEMESSVFAAMCSACGLQAAVVCVTLLNRLEGDQISSPRNVLSEYQQRPQRLVSYFIKKKLSKA [UPP1] | 56.8 °C | 56.3 °C | 0.102 | -0.279 | -4.67 | -3.64
